± gives the uncertainty stated by the source.
assay: abundance fitness (aPCA) (normalised: wild type 0, dead -1); higher = more abundant; growth selection in yeast, the domain comes from the species named; details: Homo sapiens

Going from “BAG family molecular chaperone regulator 3 P24M, O95817” to “BAG family molecular chaperone regulator 3 P24N, O95817”, the abundance fitness rises from -0.662 ± 0.21 to 0.135 ± 0.24.

“BAG family molecular chaperone regulator 3 P24Q, O95817” and “BAG family molecular chaperone regulator 3 P24R, O95817” are within error of each other in abundance fitness: -0.21 ± 0.14 for the first, -0.037 ± 0.085 for the second.

Compared with “BAG family molecular chaperone regulator 3 P24S, O95817”, “BAG family molecular chaperone regulator 3 P24T, O95817” is lower in abundance fitness: 0.456 ± 0.099 for the first, -0.036 ± 0.086 for the second.

“BAG family molecular chaperone regulator 3 P24V, O95817” and “BAG family molecular chaperone regulator 3 P24W, O95817” are within error of each other in abundance fitness: -0.784 ± 0.23 for the first, -0.659 ± 0.21 for the second.

“BAG family molecular chaperone regulator 3 P24Y, O95817” and “BAG family molecular chaperone regulator 3 P32A, O95817” are within error of each other in abundance fitness: -0.31 ± 0.28 for the first, -0.735 ± 0.17 for the second.

“BAG family molecular chaperone regulator 3 P32D, O95817” and “BAG family molecular chaperone regulator 3 P32E, O95817” are within error of each other in abundance fitness: -0.64 ± 0.39 for the first, -0.285 ± 0.13 for the second.

Going from “BAG family molecular chaperone regulator 3 P32F, O95817” to “BAG family molecular chaperone regulator 3 P32G, O95817”, the abundance fitness rises from -0.511 ± 0.47 to 0.335 ± 0.076.

Going from “BAG family molecular chaperone regulator 3 P32K, O95817” to “BAG family molecular chaperone regulator 3 P32L, O95817”, the abundance fitness falls from -0.002 ± 0.068 to -0.458 ± 0.12.

Going from “BAG family molecular chaperone regulator 3 P32M, O95817” to “BAG family molecular chaperone regulator 3 P32N, O95817”, the abundance fitness rises from -0.766 ± 0.23 to 0.039 ± 0.29.

“BAG family molecular chaperone regulator 3 P32Q, O95817” and “BAG family molecular chaperone regulator 3 P32R, O95817” are within error of each other in abundance fitness: -0.205 ± 0.28 for the first, 0.039 ± 0.074 for the second.

Compared with “BAG family molecular chaperone regulator 3 P32S, O95817”, “BAG family molecular chaperone regulator 3 P32T, O95817” is higher in abundance fitness: -0.054 ± 0.087 for the first, 0.423 ± 0.071 for the second.

“BAG family molecular chaperone regulator 3 P32V, O95817” and “BAG family molecular chaperone regulator 3 P32W, O95817” are within error of each other in abundance fitness: -0.268 ± 0.13 for the first, -0.316 ± 0.095 for the second.

Compared with “BAG family molecular chaperone regulator 3 P32Y, O95817”, “BAG family molecular chaperone regulator 3 P37A, O95817” is higher in abundance fitness: -0.23 ± 0.38 for the first, 0.4 ± 0.12 for the second.

“BAG family molecular chaperone regulator 3 P37C, O95817” and “BAG family molecular chaperone regulator 3 P37D, O95817” are within error of each other in abundance fitness: 0.143 ± 0.2 for the first, 0.447 ± 0.16 for the second.

Compared with “BAG family molecular chaperone regulator 3 P37E, O95817”, “BAG family molecular chaperone regulator 3 P37F, O95817” is lower in abundance fitness: 0.86 ± 0.092 for the first, 0.528 ± 0.17 for the second.

Compared with “BAG family molecular chaperone regulator 3 P37G, O95817”, “BAG family molecular chaperone regulator 3 P37H, O95817” is higher in abundance fitness: 0.024 ± 0.084 for the first, 0.517 ± 0.18 for the second.

Going from “BAG family molecular chaperone regulator 3 P37I, O95817” to “BAG family molecular chaperone regulator 3 P37K, O95817”, the abundance fitness rises from 0.485 ± 0.08 to 0.937 ± 0.12.

Compared with “BAG family molecular chaperone regulator 3 P37L, O95817”, “BAG family molecular chaperone regulator 3 P37M, O95817” is higher in abundance fitness: 0.128 ± 0.067 for the first, 0.465 ± 0.12 for the second.

“BAG family molecular chaperone regulator 3 P37N, O95817” and “BAG family molecular chaperone regulator 3 P37Q, O95817” are within error of each other in abundance fitness: 0.448 ± 0.2 for the first, 0.24 ± 0.16 for the second.

Compared with “BAG family molecular chaperone regulator 3 P37R, O95817”, “BAG family molecular chaperone regulator 3 P37S, O95817” is lower in abundance fitness: 0.857 ± 0.077 for the first, 0.7 ± 0.072 for the second.

First: BAG family molecular chaperone regulator 3 P37T, O95817
Second: BAG family molecular chaperone regulator 3 P37V, O95817
The abundance fitness of the first is higher: 0.898 ± 0.11 for the first, 0.358 ± 0.079 for the second.

Going from “BAG family molecular chaperone regulator 3 P37W, O95817” to “BAG family molecular chaperone regulator 3 P37Y, O95817”, the abundance fitness rises from 0.115 ± 0.086 to 0.573 ± 0.18.

Compared with “BAG family molecular chaperone regulator 3 P52A, O95817”, “BAG family molecular chaperone regulator 3 P52C, O95817” is higher in abundance fitness: -0.727 ± 0.16 for the first, -0.092 ± 0.3 for the second.

“BAG family molecular chaperone regulator 3 P52D, O95817” and “BAG family molecular chaperone regulator 3 P52E, O95817” are within error of each other in abundance fitness: -0.542 ± 0.42 for the first, -0.948 ± 0.38 for the second.

“BAG family molecular chaperone regulator 3 P52G, O95817” and “BAG family molecular chaperone regulator 3 P52H, O95817” are within error of each other in abundance fitness: -0.389 ± 0.1 for the first, -0.542 ± 0.48 for the second.

Compared with “BAG family molecular chaperone regulator 3 P52K, O95817”, “BAG family molecular chaperone regulator 3 P52L, O95817” is lower in abundance fitness: -0.039 ± 0.22 for the first, -0.741 ± 0.12 for the second.

“BAG family molecular chaperone regulator 3 P52M, O95817” and “BAG family molecular chaperone regulator 3 P52R, O95817” are within error of each other in abundance fitness: -1.07 ± 0.46 for the first, -0.633 ± 0.12 for the second.

Going from “BAG family molecular chaperone regulator 3 P52S, O95817” to “BAG family molecular chaperone regulator 3 P52T, O95817”, the abundance fitness falls from -0.303 ± 0.11 to -1.12 ± 0.39.

First: BAG family molecular chaperone regulator 3 P52W, O95817
Second: BAG family molecular chaperone regulator 3 P55A, O95817
The abundance fitness of the first is lower: -0.837 ± 0.22 for the first, 0.013 ± 0.078 for the second.

“BAG family molecular chaperone regulator 3 P55C, O95817” and “BAG family molecular chaperone regulator 3 P55D, O95817” are within error of each other in abundance fitness: 0.133 ± 0.29 for the first, -0.281 ± 0.39 for the second.

Compared with “BAG family molecular chaperone regulator 3 P55E, O95817”, “BAG family molecular chaperone regulator 3 P55F, O95817” is higher in abundance fitness: -0.8 ± 0.36 for the first, -0.012 ± 0.13 for the second.

Going from “BAG family molecular chaperone regulator 3 P55H, O95817” to “BAG family molecular chaperone regulator 3 P55I, O95817”, the abundance fitness rises from -0.636 ± 0.46 to 0.135 ± 0.16.

“BAG family molecular chaperone regulator 3 P55K, O95817” and “BAG family molecular chaperone regulator 3 P55L, O95817” are within error of each other in abundance fitness: -0.094 ± 0.12 for the first, -0.133 ± 0.095 for the second.

Compared with “BAG family molecular chaperone regulator 3 P55M, O95817”, “BAG family molecular chaperone regulator 3 P55Q, O95817” is higher in abundance fitness: -0.356 ± 0.2 for the first, 0.081 ± 0.19 for the second.

Compared with “BAG family molecular chaperone regulator 3 P55R, O95817”, “BAG family molecular chaperone regulator 3 P55S, O95817” is higher in abundance fitness: -0.306 ± 0.11 for the first, 0.153 ± 0.17 for the second.

“BAG family molecular chaperone regulator 3 P55T, O95817” and “BAG family molecular chaperone regulator 3 P55W, O95817” are within error of each other in abundance fitness: -0.427 ± 0.23 for the first, -0.508 ± 0.28 for the second.

“BAG family molecular chaperone regulator 3 P55Y, O95817” and “BAG family molecular chaperone regulator 3 P59V, O95817” are within error of each other in abundance fitness: -0.018 ± 0.29 for the first, 0.263 ± 0.34 for the second.

“BAG family molecular chaperone regulator 3 Q11A, O95817” and “BAG family molecular chaperone regulator 3 Q11D, O95817” are within error of each other in abundance fitness: 0.495 ± 0.34 for the first, -0.046 ± 0.4 for the second.

Going from “BAG family molecular chaperone regulator 3 Q11G, O95817” to “BAG family molecular chaperone regulator 3 Q11H, O95817”, the abundance fitness falls from 0.771 ± 0.065 to -0.246 ± 0.26.

Compared with “BAG family molecular chaperone regulator 3 Q11K, O95817”, “BAG family molecular chaperone regulator 3 Q11L, O95817” is lower in abundance fitness: 1.01 ± 0.19 for the first, -0.227 ± 0.32 for the second.

Compared with “BAG family molecular chaperone regulator 3 Q11M, O95817”, “BAG family molecular chaperone regulator 3 Q11P, O95817” is lower in abundance fitness: 1.03 ± 0.39 for the first, -0.132 ± 0.41 for the second.

“BAG family molecular chaperone regulator 3 Q11R, O95817” and “BAG family molecular chaperone regulator 3 Q11S, O95817” are within error of each other in abundance fitness: 0.463 ± 0.11 for the first, 0.63 ± 0.11 for the second.

“BAG family molecular chaperone regulator 3 Q11T, O95817” and “BAG family molecular chaperone regulator 3 Q11V, O95817” are within error of each other in abundance fitness: 0.18 ± 0.49 for the first, 0.619 ± 0.1 for the second.

Compared with “BAG family molecular chaperone regulator 3 Q11Y, O95817”, “BAG family molecular chaperone regulator 3 Q33A, O95817” is lower in abundance fitness: 0.795 ± 0.15 for the first, 0.032 ± 0.15 for the second.

Compared with “BAG family molecular chaperone regulator 3 Q33C, O95817”, “BAG family molecular chaperone regulator 3 Q33E, O95817” is higher in abundance fitness: -0.352 ± 0.2 for the first, 0.11 ± 0.064 for the second.

“BAG family molecular chaperone regulator 3 Q33F, O95817” showed an abundance fitness of -0.183 ± 0.27.
